Broadly, the Kd is the equilibrium constant for the complex coming apart. Low values mean tighter binding, high ones weaker binding.

In test [1] the target is T1, paired immunoglobulin-like receptor B (PIR-B), C-terminal biotinylated (mouse), P97484.
T1 chain: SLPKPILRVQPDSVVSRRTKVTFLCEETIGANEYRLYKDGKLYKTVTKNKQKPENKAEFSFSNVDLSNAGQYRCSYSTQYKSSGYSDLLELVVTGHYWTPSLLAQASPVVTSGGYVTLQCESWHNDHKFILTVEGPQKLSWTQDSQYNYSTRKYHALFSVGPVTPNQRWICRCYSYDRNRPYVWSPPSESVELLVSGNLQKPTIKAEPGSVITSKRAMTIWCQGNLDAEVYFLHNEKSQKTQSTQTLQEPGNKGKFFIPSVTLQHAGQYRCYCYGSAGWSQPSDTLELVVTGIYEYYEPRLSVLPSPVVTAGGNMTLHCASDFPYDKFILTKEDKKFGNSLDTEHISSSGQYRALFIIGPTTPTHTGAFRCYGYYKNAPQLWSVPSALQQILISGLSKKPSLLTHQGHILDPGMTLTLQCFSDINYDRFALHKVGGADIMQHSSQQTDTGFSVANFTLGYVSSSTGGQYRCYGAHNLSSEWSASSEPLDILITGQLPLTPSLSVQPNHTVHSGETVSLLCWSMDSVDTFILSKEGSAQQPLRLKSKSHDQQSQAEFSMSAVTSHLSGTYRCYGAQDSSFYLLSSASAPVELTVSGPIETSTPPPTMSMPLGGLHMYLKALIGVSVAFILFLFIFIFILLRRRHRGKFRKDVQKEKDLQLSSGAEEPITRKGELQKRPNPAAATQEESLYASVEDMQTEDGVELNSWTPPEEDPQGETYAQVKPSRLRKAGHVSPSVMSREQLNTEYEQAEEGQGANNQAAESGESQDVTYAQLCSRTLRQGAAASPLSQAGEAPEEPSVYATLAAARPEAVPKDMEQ
The experiment in a line: SPR.

Test [2] addresses two N-terminal domains (D1D2) of LILRB2 with a C-terminal biotinylation tag, biotinylated (human). The experiment in a line: SPR.

B1: soluble HLA-G2 homodimer (non-PEGylated) (domain or fragment)
chain: GSHSMRYFSAAVSRPGRGEPRFIAMGYVDDTQFVRFDSDSACPRMEPRAPWVEQEGPEYWEEETRNTKAHAQTDRMNLQTLRGYYNQSEANPPKTHVTHHPVFDYEATLRCWALGFYPAEIILTWQRDGEDQTQDVELVETRPAGDGTFQKWAAVVVPSGEEQRYTCHVQHEGLPEPLMLRW
modifications: not checked
Molecule B1 yielded a specific binding response at 6.2 μM in test [1] of 100 RU. The molecule also had a Kd in test [2] of 0.041 to 0.064 pM.

The values are drawn from paper PMC11756389.
